The record followed here is article PMC5529062 (Science Advances, 2017).

In this test the target is P22 coat protein (CP) monomers (bacteriophage P22, UniProt P26747 1-430). Kind of test: SEC. (Size exclusion chromatography separates by hydrodynamic size, large species first.)
P22 coat protein (CP) monomers, sequence (P26747 whole entry): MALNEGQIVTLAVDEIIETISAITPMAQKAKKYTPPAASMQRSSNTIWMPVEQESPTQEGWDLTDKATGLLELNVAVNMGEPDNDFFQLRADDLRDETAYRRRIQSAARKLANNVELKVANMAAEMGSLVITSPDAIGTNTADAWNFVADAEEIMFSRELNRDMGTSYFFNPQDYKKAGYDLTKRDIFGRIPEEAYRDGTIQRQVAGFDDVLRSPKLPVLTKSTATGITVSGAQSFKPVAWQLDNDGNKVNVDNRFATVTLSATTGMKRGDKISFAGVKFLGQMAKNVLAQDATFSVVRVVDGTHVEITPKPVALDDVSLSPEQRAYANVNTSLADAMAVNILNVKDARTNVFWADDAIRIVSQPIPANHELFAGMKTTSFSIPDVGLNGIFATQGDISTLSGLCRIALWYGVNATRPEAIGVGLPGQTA

B1: P22 scaffolding protein (SP) (natural protein, bacteriophage P22, UniProt P26748 1-303, looked up)
chain: MEPTTEIQATEDLTLSGDHAAASADSLVVDNANDNAGQEEGFEIVLKDDETAPKQDPAKNAEFARRRIERKRQRELEQQMEAVKRGELPESLRVNPDLPPQPDINAYLSEEGLAKYDYDNSRALAAFNAANTEWLMKAQDARSNAVAEQGRKTQEFTQQSAQYVEAARKHYDAAEKLNIPDYQEKEDAFMQLVPPAVGADIMRLFPEKSAALMYHLGANPEKARQLLAMDGQSALIELTRLSERLTLKPRGKQISSAPPADQPITGDVSAANKDAIRKQMDAAASKGDVETYRKLKAKLKGIR
As to B1, the binding result is “binds”.
